How the values were obtained:
platelets [1] = test: in vitro whole blood flow cytometry of platelet receptors and platelet-monocyte aggregates; format: cell-based, human; conditions: TNK 12 μg/mL, t-PA 4 μg/mL
Experimental: (§1) Blood samples for the in vitro study were obtained from 9 healthy volunteers. None of the subjects smoked or had hypertension, diabetes, or an abnormal hematocrit. None had received aspirin or any other antiplatelet drugs. All subjects underwent blood sampling after at least 30 minutes of rest and 2 or more hours of fasting. Blood was drawn from an antecubital vein between 8 am and 10 am in order to avoid any diurnal influence. A 21-gauge butterfly needle was used to draw blood into a tube containing 3.8% sodium citrate (1:9 volume); the first 1.5 mL of free running blood was discarded. One tube was kept as an internal control. A second tube was incubated with tenecteplase (TNK) for 30 minutes at room temperature in order to achieve a final concentration of 12 μg/mL. The third tube was similarly incubated with alteplase (t-PA) to achieve a concentration of 4 μg/mL. The concentrations of TNK and t-PA that were chosen approximated conventional plasma levels observed in patients receiving TNK and t-PA bolus (30 mg, and 15 mg, respectively; data on file, Genentech, Inc., South San Francisco, Calif.). Fresh solutions of TNK and t-PA were prepared in Dulbecco's phosphate buffered saline (DPBS) ex tempore on the morning of the platelet studies.
The surface expression of platelet receptors was determined by flow cytometry by using the following monoclonal antibodies: CD 41 (glycoprotein [GP] IIb/IIIa, α IIbβ3) CD 42b (GP Ib), CD 62p (P-selectin), CD 51/CD 61 (αvβ3, or vitronectin receptor), CD 31 (platelet endothelial cell adhesion molecule [PECAM]-1), CD 107a (LAMP-1), CD 107b (LAMP-2), CD 63 (LIMP or LAMP-3), and CD 151 (PETA-3) (PharMingen, San Diego, Calif.). Platelet-leukocyte interactions were assessed by using dual antibodies for a pan-platelet marker (CD 41), together with CD 14, a monocyte/macrophage marker. The blood-citrate mixture (50 μl) was diluted with 450 μl Tris buffered saline (TBS) (10 mmol/L Tris, 0.15 mol/L sodium chloride) and mixed by gently inverting an Eppendorf tube 2 times. The corresponding antibody was then added (5 μl) and incubated at 4° C. for 30 minutes. After incubation, 400 μl of 2% buffered paraformaldehyde was added for fixation. The samples were analyzed on a Becton Dickinson FACScan flow cytometer set up to measure fluorescent light scatter, as previously described. All parameters were collected by using 4-decade logarithmic amplification. The data were collected in list mode files and then analyzed. P-selectin was expressed as percent positive cells. Other antigens were expressed as log mean fluorescence intensity.
For all comparisons, statistical analyses were done by using repeated measures ANOVA. Post hoc comparison was performed by use of the Bonferroni t-test to identify specific differences in platelet aggregation and receptor expression between patients treated with TNK and t-PA, and controls. The Mann-Whitney U test was used to analyze non-parametric data. Normally distributed data were expressed as mean±SE, and skewed data as median (range). Probability values of P<0.05 were regarded as statistically significant. Linear regression analysis was applied to normally distributed data for all study participants by using the Statview 4.1 program for analysis.

platelets [2] = test: in vitro comparison of TNK versus t-PA on platelet activation and surface receptor expression (15 parameters); format: cell-based, human; conditions: TNK 12 μg/mL, t-PA 4 μg/mL, 30 minutes
Experimental: Blood samples for the in vitro study were obtained from 9 healthy volunteers. None of the subjects smoked or had hypertension, diabetes, or an abnormal hematocrit. None had received aspirin or any other antiplatelet drugs. All subjects underwent blood sampling after at least 30 minutes of rest and 2 or more hours of fasting. Blood was drawn from an antecubital vein between 8 am and 10 am in order to avoid any diurnal influence. A 21-gauge butterfly needle was used to draw blood into a tube containing 3.8% sodium citrate (1:9 volume); the first 1.5 mL of free running blood was discarded. One tube was kept as an internal control. A second tube was incubated with tenecteplase (TNK) for 30 minutes at room temperature in order to achieve a final concentration of 12 μg/mL. […]
For the platelet aggregation (PA) studies, platelet-rich plasma (PRP) was first isolated. […] Platelet counts were determined for each PRP sample with a Coulter Counter ZM (Coulter Co., Hialeah, Fla.). […] Platelet aggregation was determined by using a 4 channel Chrono-log Lumi-Aggregometer (model 560-Ca) and expressed as the maximum percentage of light transmittance change (% max) from the baseline at the end of the recording time. […] Platelet aggregability curves were recorded for 6 minutes and analyzed according to internationally established standards (see, e.g., Ruggeri, Z. M. (1994) Semin. Hemat. 31:229-239). […]

platelets [3] = test: PFA-100 platelet function analyzer, closure time; format: cell-based, human; conditions: TNK 12 μg/mL, t-PA 4 μg/mL
Experimental: as §1
The PFA-100™ (Dade Behring, Deerfield, Ill.) is a high shear-inducing platelet function analyzer that simulates primary hemostasis after injury to a small vessel under flow conditions (see, e.g. Kundu, S. K. et al. (1996) Clin. Appl. Thromb. Hemost. 2:241-249). The device provides a constant negative pressure that aspirates a whole blood-citrate mixture, which comes into contact with a collagen-coated membrane and then passes through an aperture. The time required to obtain occlusion of the aperture is digitally recorded and is a measure of shear-induced platelet aggregation.
For all comparisons, statistical analyses were done by using repeated measures ANOVA. […] Normally distributed data were expressed as mean±SE, and skewed data as median (range). […]

[4] = "accelerated" regimen, GUSTO trial; cited from earlier work

B1: t-PA: recombinant tissue plasminogen activator, thrombolytic agent (Genentech) (protein, UniProt P00750 36-562, looked up)
Tissue-type plasminogen …: SYQVICRDEKTQMIYQQHQSWLRPVLRSNRVEYCWCNSGRAQCHSVPVKSCSEPRCFNGGTCQQALYFSDFVCQCPEGFAGKCCEIDTRATCYEDQGISYRGTWSTAESGAECTNWNSSALAQKPYSGRRPDAIRLGLGNHNYCRNPDRDSKPWCYVFKAGKYSSEFCSTPACSEGNSDCYFGNGSAYRGTHSLTESGASCLPWNSMILIGKVYTAQNPSAQALGLGKHNYCRNPDGDAKPWCHVLKNRRLTWEYCDVPSCSTCGLRQYSQPQFRIKGGLFADIASHPWQAAIFAKHRRSPGERFLCGGILISSCWILSAAHCFQERFPPHHLTVILGRTYRVVPGEEEQKFEVEKYIVHKEFDDDTYDNDIALLQLKSDSSRCAQESSVVRTVCLPPADLQLPDWTECELSGYGKHEALSPFYSERLKEAHVRLYPSSRCTSQHLLNRTVTDNMLCAGDTRSGGPQANLHDACQGDSGGPLVCLNDGRMTLVGIISWGLGCGQKDVPGVYTKVTNYLDWIRDNMRP
Q: What does the source list for B1?
A: expression of PECAM-1 compared with saline-treated samples (platelets [1]): trend toward diminished expression; expression of glycoprotein IIb/IIIa compared with saline-treated samples (platelets [1]): reduced expression; formation of platelet-monocyte aggregates compared with saline-treated samples (platelets [1]): trend toward diminished; platelet function, 10 of 15 parameters, compared with baseline DPBS values (platelets [2]): diminished platelet function; closure time (PFA-100) compared with DPBS (platelets [3]): prolongation; benefit in mortality reduction [4]: further benefit

Source: patent publication US20030180282A1, “Method of treatment of thrombotic events” (priority 2002, published 2003)
